Assays:
[1] = biological target: T1, alpha-enolase on the surface of C. albicans (Candida albicans, UniProt P30575); assay: Flow cytometry of C. albicans, FITC binding; assay type: cell-based, C. albicans SC 5314; details: 100 ug antibody, 10^5 cells, 2 hours at 37° C.
T1 construct: endogenous in cells; host or cells: C. albicans SC 5314 and clinical isolates CA6-17, CA7-26, CA7-3, CA10-50, CA7-30, CA10-65
Experimental: (A) C. albicans SC 5314 were cultured overnight and 10^5 cells were added to each tube with 2 ml YPD medium. Experiment antibodies were added to each tube (1) Anti-CaENO1 IgY (100 ug) (2) Control scFv (100 ug) (3) scFv CaS1 (100 ug) (4) PBS, and cultured 2 hours at 37° C. in an incubator. Goat anti-chicken light chain (1:1500) antibody was used as detected antibody; FITC donkey anti-goat antibody (1:1000) was used as developed antibody to detect the reaction. Propidium iodide (PI) (1 ug/ml) was used to detect cell death. (B) Quantification of flow cytometry result in the panel A (*, p<0.05;**, p<0.01). Flow cytometry is represented as mean±SD of the duplicated experiment.
Anti-CaENO1 IgY, scFv CaS1 and control scFv were contacted with C. albicans and then subjected to flow cytometry assay. Anti-CaENO1 IgY, scFv CaS1 and control scFv show 89.7+/−2.8%, 46.64+/−3.1% and 23+/−2.3% FITC fluorescence reaction (FIG. 7A), representing that the antibody can bind to alpha-enolase on the surface of C. albicans.

C. albicans = C. albicans hyphal formation; assay type: cell-based; details: CaS1 scFv pre-incubated with 10^3 cfu, 5 days at 37° C.
Experimental: (A) C. albicans were cultured in YPD medium overnight at 37° C. 10^8 cfu/ml of C. albicans was mixed with equal volume of 0.5 mg/ml anti-CaENO1 IgY, 0.5 mg/ml CaS1 scFv or 1×PBS, respectively, at room temperature for 1 hr. 1 ul of each mixture in 10× dilutions was spotted on YPD agar plate and incubated at 37° C. overnight. (B) 10^3 cfu of C. albicans was mixed with PBS (control), 10 or 100 µg/ml CaS1 scFv at room temperature for 1 hr. 1 ul of each mixture was spotted on YPD agar plate and incubated at 37° C. for 5 days. The hyphal formation was observed under the microscope.
To determine the effect of scFv antibodies on the cell growth and hyphal formation, anti-CaENO1 IgY (0.5 mg/ml) or CaS1 scFv (0.5 mg/ml) or PBS were pre-incubated with C. albicans (1×10^6 cfu) for 1 hr at 37° C. After incubation, 1 ul of each mixture in 10-fold dilutions was spotted on YPD agar plate and incubated at 37° C. overnight. 10^3 cfu of C. albicans was mixed with 0 (1×PBS control), 10 or 100 µg/ml CaS1 scFv at room temperature for 1 hr. Thereafter, 1 ul of each mixture was spotted on YPD agar plate and incubated at 37° C. for 5 days. […].
So we further investigated whether CaS1 scFv affects the hyphal formation. We pre-incubated CaS1 scFv with C. albicans and the colony morphology was examined. […]

[2] = biological target: T2, binding of surface ENO1 of C. albicans to plasminogen (Candida albicans, UniProt P30575); assay: Fibrin matrix-gel degradation analysis with C. albicans cells; assay type: cell-based; details: for Binding of CaENO1 to plasminogen: fibrin matrix-gel degradation analysis, C. albicans cells
T2 construct: endogenous in cells; host or cells: C. albicans cells
Experimental: The ability of CaS1 scFv to block the binding of CaENO1 with plasminogen was evaluated by fibrin matrix-gel degradation analysis. Various samples containing C. albicans only (1), C. albicans+1 ug of plasminogen (2) or C. albicans+10 ug of plasminogen (3) were spotted on the plate. Similar experiments were carried out except C. albicans were mixed first with 10 ug (4) or 100 ug (5) of CaS1 scFv, followed by the addition of 10 ug of plasminogen. C. albicans+CaS1 scFv without plasminogen (6) were spotted as a negative control.
The matrix gel was prepared for fibrinolysis activity detection^33. C. albicans (10^6 cells) were washed and incubated with or without CaS1scFv ([…]) at 37° C. for 1 hr. After incubation, cells were washed and incubated with plasminogen (10 μg) for 30 min. The mixtures were washed with PBS to remove free plasminogen. The resulting cell pellets were placed in a matrix gel that contained 1.25% low-melting-temperature agarose, thrombin (0.05 U/ml, Sigma) and fibrinogen (2 mg/ml, Sigma). The gel was incubated in a humidified chamber at 37° C. for 10-14 hrs until the appearance of clear spots indicated the presence of fibrinolysis activity.
It is well known that surface ENO1 act as a plasminogen receptor 32, binding to plasminogen will activate it to plasmin and leading to the degradation of the fibrinogen (extracellular matrix) containing in the gel. We performed matrix-gel studies to test the possible biological significance of CaENO1-plasminogen association and the effect of CaS1 scFv on this binding was observed.
The inhibition of the degradation of the fibrinogen in the gel is obvious.

T2 sequence (P30575 whole entry): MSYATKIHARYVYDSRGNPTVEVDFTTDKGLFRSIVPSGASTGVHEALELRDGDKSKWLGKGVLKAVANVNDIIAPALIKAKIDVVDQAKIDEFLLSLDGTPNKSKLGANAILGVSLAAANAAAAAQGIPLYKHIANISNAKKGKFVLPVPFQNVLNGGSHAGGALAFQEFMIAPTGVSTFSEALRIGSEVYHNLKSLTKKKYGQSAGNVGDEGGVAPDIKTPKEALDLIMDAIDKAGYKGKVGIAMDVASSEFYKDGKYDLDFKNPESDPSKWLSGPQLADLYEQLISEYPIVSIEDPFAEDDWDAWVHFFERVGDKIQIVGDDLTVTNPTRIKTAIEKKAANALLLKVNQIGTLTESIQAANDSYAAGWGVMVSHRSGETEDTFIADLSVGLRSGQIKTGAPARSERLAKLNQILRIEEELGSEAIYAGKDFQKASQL
T1 sequence (P30575 whole entry): as above

B1: CaS1 scFv: anti-CaENO1 scFv monoclonal antibody from chicken phage library; light chain SEQ ID NO:11, heavy chain SEQ ID NO:12 (antibody, V domains shown)
VH: TVTLDESGGGLQTPRGALSLVCKASGFTFIDYGMQWVRQAPGKGLEWVAGIGSSGSSTNYGAAVKGRATISRDDGQSTVRLQLNNLRAEDTGTYYCAKSAGGYCVNGAGCNGGSIDAWGHGTEVIVSS
VL: ALTQPSSVSANLGGTVKITCSGGSGSYGWYQQKSPGSAPVTVIYSNNQRPSNIPSRFSGSPSGSTGTLTITGVQADDEAVYFCGSRDSSYVGVFGAGTTLTVL
modifications: scFv linker; amino acid sequence comprised in a heavy chain of an anti-CaENO1 scFv monoclonal antibody (CaS1); amino acid sequence comprised in a light chain of an anti-CaENO1 scFv monoclonal antibody (CaS1)
[1]
  FITC fluorescence reaction: 46.64+/−3.1%
C. albicans
  Hyphal formation: very little or none were observed
[2]; C. albicans pre-incubated with 10 ug or 100 ug, then 10 ug plasminogen
  Fibrinolytic activity of C. albicans with plasminogen: significantly inhibited
[2]; C. albicans+CaS1 scFv without plasminogen
  Fibrinolysis activity in the absence of plasminogen: no fibrinolysis activity
[2]
  Binding of CaENO1 to plasminogen: significantly reduced
[2]; listed as CaS1
  Binding of CaENO1 to plasminogen: significantly inhibited
